Assay results from PMC7176092, “Development of the first in vivo GPR17 ligand through an iterative drug discovery pipeline: A novel disease-modifying strategy for multiple sclerosis” (PLoS ONE, 2020).

Tests used:
ADR1A = biological target: T1, ADR1A (Homo sapiens, UniProt P35348); assay: Binding assay ADR1A; conditions: reference compound
T1 construct: Eurofins Cerep (external service)
T1 sequence (P35348 1-466): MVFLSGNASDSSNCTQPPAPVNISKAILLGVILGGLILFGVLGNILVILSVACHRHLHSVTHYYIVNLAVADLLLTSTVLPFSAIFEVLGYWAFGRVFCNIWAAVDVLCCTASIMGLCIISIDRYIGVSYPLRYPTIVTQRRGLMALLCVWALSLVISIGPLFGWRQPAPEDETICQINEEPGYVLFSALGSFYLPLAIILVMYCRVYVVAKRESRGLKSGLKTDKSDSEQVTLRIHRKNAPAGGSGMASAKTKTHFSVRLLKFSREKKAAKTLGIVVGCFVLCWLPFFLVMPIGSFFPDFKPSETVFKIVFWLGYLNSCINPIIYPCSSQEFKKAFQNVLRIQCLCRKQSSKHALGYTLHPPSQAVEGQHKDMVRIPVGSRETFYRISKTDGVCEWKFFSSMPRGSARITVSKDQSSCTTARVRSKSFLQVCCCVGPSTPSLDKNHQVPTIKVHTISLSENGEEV

CXCR5 = biological target: T2, CXCR5 (Homo sapiens, UniProt P32302); assay: Cellular functional assay CXCR5; conditions: reference agonist
T2 sequence (P32302 1-372): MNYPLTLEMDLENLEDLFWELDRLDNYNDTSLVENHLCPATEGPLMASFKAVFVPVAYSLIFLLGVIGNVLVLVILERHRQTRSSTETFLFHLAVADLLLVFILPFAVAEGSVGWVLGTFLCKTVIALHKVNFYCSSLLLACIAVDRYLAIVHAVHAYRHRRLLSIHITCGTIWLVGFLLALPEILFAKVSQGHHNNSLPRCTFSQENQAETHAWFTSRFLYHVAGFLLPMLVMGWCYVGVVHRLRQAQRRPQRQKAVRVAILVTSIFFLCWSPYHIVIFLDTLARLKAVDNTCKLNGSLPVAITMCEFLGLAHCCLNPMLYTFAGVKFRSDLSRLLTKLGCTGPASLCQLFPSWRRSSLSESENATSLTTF

CXCR3 = biological target: T3, CXCR3 (Homo sapiens, UniProt P49682); assay: Cellular functional assay CXCR3; conditions: reference agonist
T3 sequence (P49682 1-368): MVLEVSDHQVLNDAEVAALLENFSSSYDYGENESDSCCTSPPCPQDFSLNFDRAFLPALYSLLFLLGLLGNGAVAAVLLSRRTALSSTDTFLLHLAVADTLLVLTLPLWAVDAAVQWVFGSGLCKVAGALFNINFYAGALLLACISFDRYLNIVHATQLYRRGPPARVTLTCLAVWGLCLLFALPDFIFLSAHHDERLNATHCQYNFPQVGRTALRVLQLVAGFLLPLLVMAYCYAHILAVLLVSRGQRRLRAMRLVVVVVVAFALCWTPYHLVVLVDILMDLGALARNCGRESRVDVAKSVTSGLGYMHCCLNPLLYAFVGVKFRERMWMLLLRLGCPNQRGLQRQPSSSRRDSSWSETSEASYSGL

CXCR6 = CXCR6 (Homo sapiens, UniProt O00574); assay: Cellular functional assay CXCR6; conditions: reference agonist
Sequence of CXCR6 (O00574 whole entry): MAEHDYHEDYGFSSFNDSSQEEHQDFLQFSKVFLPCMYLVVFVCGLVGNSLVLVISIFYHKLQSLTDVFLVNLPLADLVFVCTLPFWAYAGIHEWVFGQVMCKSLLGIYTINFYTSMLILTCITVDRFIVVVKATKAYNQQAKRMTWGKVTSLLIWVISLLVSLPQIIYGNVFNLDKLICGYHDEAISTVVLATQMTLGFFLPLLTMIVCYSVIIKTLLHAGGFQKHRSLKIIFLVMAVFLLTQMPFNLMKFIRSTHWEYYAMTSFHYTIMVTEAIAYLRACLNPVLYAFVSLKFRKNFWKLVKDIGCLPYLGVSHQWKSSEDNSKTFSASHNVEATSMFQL

CCR10 = biological target: T4, CCR10 (Homo sapiens, UniProt P46092); assay: Cellular functional assay CCR10; conditions: reference agonist
T4 sequence (P46092 1-362): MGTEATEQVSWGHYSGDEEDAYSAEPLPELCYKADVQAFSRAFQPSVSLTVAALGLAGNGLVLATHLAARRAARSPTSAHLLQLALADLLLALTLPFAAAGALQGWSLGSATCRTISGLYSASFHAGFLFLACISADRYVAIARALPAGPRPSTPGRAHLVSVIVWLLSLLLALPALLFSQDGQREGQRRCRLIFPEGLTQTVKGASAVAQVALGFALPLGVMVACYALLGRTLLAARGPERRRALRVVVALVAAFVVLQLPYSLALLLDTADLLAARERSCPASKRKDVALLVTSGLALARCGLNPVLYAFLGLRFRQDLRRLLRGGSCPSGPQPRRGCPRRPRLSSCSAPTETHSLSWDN

CCR4 = biological target: T5, CCR4 (Homo sapiens, UniProt P51679); assay: Cellular functional assay CCR4; conditions: reference agonist
T5 sequence (P51679 1-360): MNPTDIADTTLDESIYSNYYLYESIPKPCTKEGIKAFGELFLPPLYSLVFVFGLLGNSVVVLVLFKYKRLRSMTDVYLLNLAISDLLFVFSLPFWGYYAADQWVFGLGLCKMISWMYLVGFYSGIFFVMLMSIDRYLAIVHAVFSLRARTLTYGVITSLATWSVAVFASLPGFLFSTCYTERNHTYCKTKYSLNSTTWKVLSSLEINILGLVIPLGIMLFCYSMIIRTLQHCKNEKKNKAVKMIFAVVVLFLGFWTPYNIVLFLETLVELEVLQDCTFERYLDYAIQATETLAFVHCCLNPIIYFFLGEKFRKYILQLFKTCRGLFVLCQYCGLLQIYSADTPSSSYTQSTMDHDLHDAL

CXCR4 = CXCR4 (Homo sapiens, UniProt P61073); assay: Cellular functional assay CXCR4; conditions: reference antagonist
Sequence of CXCR4 (P61073 whole entry): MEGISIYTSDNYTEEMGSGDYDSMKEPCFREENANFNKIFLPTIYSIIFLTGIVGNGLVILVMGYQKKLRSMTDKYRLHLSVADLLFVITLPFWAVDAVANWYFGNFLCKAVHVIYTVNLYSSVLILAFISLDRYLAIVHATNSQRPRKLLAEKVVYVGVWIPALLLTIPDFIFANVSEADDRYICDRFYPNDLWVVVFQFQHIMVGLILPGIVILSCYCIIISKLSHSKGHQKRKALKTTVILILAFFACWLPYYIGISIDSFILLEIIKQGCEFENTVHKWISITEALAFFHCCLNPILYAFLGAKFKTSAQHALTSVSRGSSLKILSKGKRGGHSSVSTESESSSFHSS

CCR9 = biological target: T6, CCR9 (Homo sapiens, UniProt P51686); assay: Cellular functional assay CCR9; conditions: reference agonist
T6 sequence (P51686 1-369): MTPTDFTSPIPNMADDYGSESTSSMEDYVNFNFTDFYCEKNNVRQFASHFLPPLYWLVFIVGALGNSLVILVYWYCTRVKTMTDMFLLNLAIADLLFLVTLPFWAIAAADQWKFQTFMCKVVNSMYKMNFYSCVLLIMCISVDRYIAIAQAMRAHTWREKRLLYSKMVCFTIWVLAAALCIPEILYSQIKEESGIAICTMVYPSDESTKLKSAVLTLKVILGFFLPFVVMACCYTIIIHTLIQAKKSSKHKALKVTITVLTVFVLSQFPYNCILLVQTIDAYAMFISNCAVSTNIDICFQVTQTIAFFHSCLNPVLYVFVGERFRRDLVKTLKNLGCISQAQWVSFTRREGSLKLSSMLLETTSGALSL

CCR8 = CCR8 (Homo sapiens, UniProt P51685); assay: Cellular functional assay CCR8; conditions: reference agonist
Sequence of CCR8 (P51685 whole entry): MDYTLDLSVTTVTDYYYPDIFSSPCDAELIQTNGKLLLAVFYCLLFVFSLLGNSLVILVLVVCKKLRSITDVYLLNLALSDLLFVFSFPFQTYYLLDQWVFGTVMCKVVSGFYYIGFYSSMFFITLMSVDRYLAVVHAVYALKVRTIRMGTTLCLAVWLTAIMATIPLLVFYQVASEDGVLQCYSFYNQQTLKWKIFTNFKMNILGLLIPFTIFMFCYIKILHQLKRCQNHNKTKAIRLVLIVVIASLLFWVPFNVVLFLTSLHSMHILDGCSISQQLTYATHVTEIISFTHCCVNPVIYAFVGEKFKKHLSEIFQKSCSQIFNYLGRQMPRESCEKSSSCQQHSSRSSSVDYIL

COc1cccc(OC)c1OCCNCC1COc2ccccc2O1 (stereo not drawn) [WB 4101, reference compound]
IC50 (ADR1A): 0.39 nM

CXCL13/BLC/BCA-1: chemokine, reference agonist for CXCR5
EC50 (CXCR5): 3.8 nM

I-TAC: chemokine, reference agonist for CXCR3
EC50 (CXCR3): 2.3 nM

B1: CXCL16: chemokine, reference agonist for CXCR6 (protein, UniProt Q9H2A7 30-254, looked up)
C-X-C motif chemokine 16: NEGSVTGSCYCGKRISSDSPPSVQFMNRLRKHLRAYHRCLYYTRFQLLSWSVCGGNKDPWVQELMSCLDLKECGHAYSGIVAHQKHLLPTSPPISQASEGASSDIHTPAQMLLSTLQSTQRPTLPVGSLSSDKELTRPNETTIHTAGHSLAAGPEAGENQKQPEKNAGPTARTSATVPVLCLLAIIFILTAALSYVLCKRRRGQSPQSSPDLPVHYIPVAPDSNT
EC50 (CXCR6): 1.6 nM

B2: CTACK/CCL27: chemokine, reference agonist for CCR10 (protein, UniProt Q9Y4X3 25-112, looked up)
C-C motif chemokine 27: FLLPPSTACCTQLYRKPLSDKLLRKVIQVELQEADGDCHLQAFVLHLAQRSICIHPQNPSLSQWFEHQERKLHGTLPKLNFGMLRKMG
EC50 (CCR10): 5 nM

B3: TARC: chemokine, reference agonist for CCR4 (protein, UniProt Q92583 24-94, looked up)
C-C motif chemokine 17: ARGTNVGRECCLEYFKGAIPLRKLKTWYQTSEDCSRDAIVFVTVQGRAICSDPNNKRVKNAVKYLQSLERS
EC50 (CCR4): 0.34 nM

B4: MIP-II: reference antagonist for CXCR4 (protein)
chain: LGASWHRPDKCCLGYQKRPLPQVLLSSWYPTSQLCSKPGVIFLTKRGRQVCADKSKDWVKKLMQQLPVTAR
IC50 (CXCR4): 150 nM

B5: CCL25: chemokine, reference agonist for CCR9 (protein, UniProt O15444 24-150, looked up)
C-C motif chemokine 25: QGVFEDCCLAYHYPIGWAVLRRAWTYRIQEVSGSCNLPAAIFYLPKRHRKVCGNPKSREVQRAMKLLDARNKVFAKLHHNTQTFQAGPHAVKKLSSGNSKLSSSKFSNPISSSKRNVSLLISANSGL
EC50 (CCR9): 2 nM

B6: I-309: chemokine, reference agonist for CCR8 (protein, UniProt P22362 24-96, looked up)
C-C motif chemokine 1: KSMQVPFSRCCFSFAEQEIPLRAILCYRNTSSICSNEGLIFKLKRGKEACALDTVGWVQRHRKMLRHCPSKRK
EC50 (CCR8): 0.72 nM
